Results as given in publication PMC3772059.

Test system: TTF-IΔN348
Test: MST
Settings: 5 mM MgCl2; Hill coefficient 1; MST: 50 nM DNA, 5 nM-2.4 uM protein, 80 mM Tris-HCl pH 7.6, 80 mM KCl, 0.2 mM EDTA, 5 mM MgCl2, 10% glycerol, 0.05% IGEPAL CA-630, 10 min at 30 C; EMSA and …

## T2 Sal-box 30-mer oligonucleotide
  Kd: 500 nM
